From the DeepSol protein solubility set

assay: soluble on expression in E. coli; label from the status in PepcDB or PDB records

Sequence | soluble on expression in E. coli
MNFDVVIIGGGLAGLTCGIALQKQGKQCAIINNGQAAIDFSSGSMDLLSCLPSGQKVHVFCEAFSELSQQAPEHPYCLLGQHQVVAKVQQFEQFMQELGLVGSHKQNHLRVTPLGGLRHTWLSPKSVPVIAENEHFPYRQIAILGIEGYHDFQPQILVDNLKQNAAFSHCDFSIGYLNIPELDYLRQNAREFRSVNIAQLLEHKLAFEDLVQEIKQAAGNAQAVFLLACFGLDDQRFFDSLKQATALALFELPTLPPSLIGIRQYRTLRDQFEKLGGLLLNGDRAVRAEFDGDRVARIFTTLHQEESINAAHFVLASGSFFSNGLVAEFERVKEPIFDLDIIGNKAFINSERVSWTDKRFAAAQPYQSAGVAINHHCQVYKNGHLIPNLYAIGNVIGGFWGIEQGCASGVSVVTALTVAEWVGGTKLEHHHHHH | not soluble
MNFDWQMPRDPFADDPNDPASFIEDDEQAPPLTEAERQHIREDLALVKRFKEALEPRGINGIFFLCEDCDEDHYYDWDIMAANMRATLAGELAPVHEPSVNPNPHAYVPWDYCLGYLDGLEAPRMRFF | not soluble
MNFQKVCSLDELWEGDMTEVEVAGHVIVLVRPEGGEPRAFQGICPHQDIPLAEGKFDGRVLMCRAHQWTFDANTGKGINPGGARLAEYALKVEGDDILVAVEGVEPLFANC | soluble
MNFSGKYQVQSQENFEPFMKAMGLPEDLIQKGKDIKGVSEIVHEGKKVKLTITYGSKVIHNEFTLGEECELETMTGEKVKAVVKMEGDNKMVTTFKGIKSVTEFNGDTITNTMTLGDIVYKRVSKRI | soluble
MNFYSLSVFIALVFSFNAADGHRCHRRGNGGFSKIFDKSTIQKIVPFFLIKIQNQNKNNIF | not soluble
MNGESDCATCTISGAKLGNALGAIWTFVHTMEQGDVVLVRHGAWLSIGIIGPYRYVKHLDNDIYGFCHQRSVEWKIINENVRLYNEKVHETLRHPGVVTKSKYTVHELQLGIEW | not soluble
MNGHISNHPSSFGMYPSQMNGYGSSPTFSQTDREHGSKTSAKALYEQRKNYARDSVSSVSDISQYRVEHLTTFVLDRKDAMITVDDGIRKLKLLDAKGKVWTQDMILQVDDRAVSLIDLESKNELENFPLNTIQHCQAVMHSCSYDSVLALVCKEPTQNKPDLHLFQCDEVKANLISEDIESAISDSKGGKQKRRPDALRMISNADPSIPPPPRAPAPAPPGTVTQVDVRSRVAAWSAWAADQGDFEKPRQYHEQEETPEMMAARIDRDVQILNHILDDIEFFITKLQKAAEAFSELSKRKKNKKGKRKGPGEGVLTLRAKPPPPDEFLDCFQKFKHGFNLLAKLKSHIQNPSAADLVHFLFTPLNMVVQATGGPELASSVLSPLLNKDTIDFLNYTVNGDERQLWMSLGGTWMKARAEWPKEQFIPPYVPRFRNGWEPPMLNFMGATMEQDLYQLAESVANVAEHQRKQEIKRLSTEHSSVSEYHPADGYAFSSNIYTRGSHLDQGEAAVAFKPTSNRHIDRNYEPLKTQPKKYAKSKYDFVARNNSELSVLKDDILEILDDRKQWWKVRNASGDSGFVPNNILDIVRPPESGLGRADPPYTHTIQKQRMEYGPRPADTPPAPSPPPTPAPVPVPLPPSTPAPVPVSKVPANITRQNSSSSDSGGSIVRDSQRHKQLPVDRRKSQMEEVQDELIHRLTIGRSAAQKKFHVPRQNVPVINITYDSTPEDVKTWLQSKGFNPVTVNSLGVLNGAQLFSLNKDELRTVCPEGARVYSQITVQKAALEDSSGSSELQEIMRRRQEKISAAASDSGVESFDEGSSH | soluble
MNGSRSTFLYLLAAAGLALTPAAQADRGNDVVARLNQLYNDTRQDCGGPSKPAFLCSGVLFRATWPSTDYMFYSISPKSQKSGGVSASYLRKDAKYRKLAYGLKSGFIFDTIFGNPKDHQDYAVLCSFPIDAATDDRAQQGCTDSRRTPNSVEKSCQDINVSTAEQWAANYRQNRGDHSRQCSFDVRDERNTAAGPAFYQSIRAMAQIADESFTTQNELRLAKWEENPPKSPSILAAFYTEDAGLEGARLNQIQWYQSVQAFLPIINMRLPQTRQQDAQFAYDGRKQAIYPTSEKNACERYVESATWVERDDPGFRKKIMTLEVVPTDCGRKIQDNQTNNFFNELVVDHYLDSEWKDNPDNRDSNIGSMRRQLVCHFNVARNKPEWNLEPSRPYTSNEDSIAKGCNNT | not soluble
MNIKYSGIENRFETAILKKNGVRSGFVSFAPNLAAVKLNDYAKVRKRITKTKQKADIVIVMFHGGAEGKQAEHLPFDTEIFYGENRGNVVEFARLAVDSGADVVFGQGPHVTRAVELYRDRFISYSGGNFATYGAINTSGISGIAPIFKIITDKQGRFVSGNIIPITQVGDKIPKIDPEKTVIGRIIYLNRSDFPKGNGLDVSPDGSITRR | not soluble
MNIQALINDKVSQALEAAGAPAGSPAAVRQSAKPQFGDYQANGVMGVAKKLGTNPREFAQKVLDVLDLDGIASKTEIAGPGFINIFLSEEFLAKQADAALADSR | not soluble
MNISVFDLFSIGIGPSSSHTVGPMLAANAFLQLLEQKNLFDKTQRVKVELYGSLALTGKGHGTDKAILNGLENKAPETVDPASMIPRMHEILDSNLLNLAGKKEIPFHEATDFLFLQKELLPKHSNGMRFSAFDGNANLLIEQVYYSIGGGFITTEEDFDK | not soluble
MNITPFPTLSPATIDAINVIGQWLAQDDFSGEVPYQADCVILAGNAVMPTIDAACKIARDQQIPLLISGGIGHSTTFLYSAIAQHPHYNTIRTTGRAEATILADIAHQFWHIPHEKIWIEDQSTNCGENARFSIALLNQAVERVHTAIVVQDPTMQRRTMATFRRMTGDNPDAPRWLSYPGFVPQLGNNADSVIFINQLQGLWPVERYLSLLTGELPRLRDDSDGYGPRGRDFIVHVDFPAEVIHAWQTLKHDAVLIEAMESRSLRLEHHHHHH | not soluble
MNKAIFLDRDGTLNIDYGYVHEIDNFKFIDGVIDALRELKKMGYMLVLVTNQSGIARGYFSEDQFLQLTEWMDWSLAEQDVDLDGIYYCPHHSEGKGEYKEDCDCRKPKSGMLLQAIKELKIDPTQSIMVGDKVEDLKAGIGAKVKMNVLVRTGKPVTGEGEGIADYVLDSIVDLPRILKRLKKLEHHHHHH | not soluble
MNKFIAAEAAECIGCHACEIACAVAHNQENWPLSHSDFRPRIHVVGKGQAANPVACHHCNNAPCVTACPVNALTFQSDSVQLDEQKCIGCKRCAIACPFGVVEMVDTIAQKCDLCNQRSSGTQACIEVCPTQALRLMDDKGLQQIKVARQRKTAAGKASSDAQPSRSAALLPVNSRKGADKISASERKTHFGEIYCGLDPQQATYESDRCVYCAEKANCNWHCPLHNAIPDYIRLVQEGKIIEAAELCHQTSSLPEICGRVCPQDRLCEGACTLKDHSGAVSIGNLERYITDTALAMGWRPDVSKVVPRSEKVAVIGAGPAGLGCADILARAGVQVDVFDRHPEIGGMLTFGIPPFKLDKTVLSQRREIFTAMGIDFHLNCEIGRDITFSDLTSEYDAVFIGVGTYGMMRADLPHEDAPGVIQALPFLTAHTRQLMGLPESEEYPLTDVEGKRVVVLGGGDTTMDCLRTSIRLNAASVTCAYRRDEVSMPGSRKEVVNAREEGVEFQFNVQPQYIACDEDGRLTAVGLIRTAMGEPGPDGRRRPRPVAGSEFELPADVLIMAFGFQAHAMPWLQGSGIKLDKWGLIQTGDVGYLPTQTHLKKVFAGGDAVHGADLVVTAMAAGRQAARDMLTLFDTKAS | not soluble
MNKFNEEYRKMEEDAQRRHQELNRQSLENAAEMKDSRRKILNKEFEGAILIKQVEHETKQVEKKRENLEKGHKKEMRNMSADFRKKKNEIEMEQLKLAIGNRVENHNQRKVEEQLRNEQERFLKKLLKYHTTTGANRDLFGEFQKVLKPFNEMIGELQDIKLRCITDGDADNGYIEYEVDYVGQLRRSVYTEIDEFREYIADEKNISKEIGIACAIYVKKLERIADCKELNLLCDQLQAAIEGKNGEIIKTCEIFIDKFTQKFESISNGSTSDFHRLRLKAPERDIPSSSTLTIEN | not soluble
MNKKDFLDFLNQNILILDGATGTELQKRGMPGGVCPEMWVIENPDVIMDIQKDYINAGSNAVYTCTFGGNRIKLSEFGLGDKVVEINKKLAQLSRKAAGEKGLVAGDLAPTGRFVRPFGDMPFEEAVDVYKEQVKGLLEGGVDFFVIETMMDIQEARAALLAVKESCDLPVCVSMTFDESGRTLTGTDSVSALIILQSLGADVVGCNCSTGPQDMIKIIREMKPYAKVPLLAKPNAGLPKLIDGKTRFDMEPEEFGSYIKEFVEAGVNLLGGCCGTSPVYIEQIRKNIEGLKPIPPQPKEICAVASARKTVFVDANEPVVVVGERINPTGKKKLQEELRQGMTSLVRQFAVEQVEKGADILDVNVGMPGIDEKETMVKVVELLSSITDAPLCLDSSSPEVLEAALRIYPGRALINSISAEKVKIEKLLPIAAKYGAAFILLPLGDAGVPKSAGERCKIVEEVFNEASKWGYTKKDVIVDGLVMTVSADQEAAVETLKVIEWCTQSFGCGTIVGLSNVSFGMPERAWINSAFLAMAIGYGLTMAILNPSSDTLMSIKMASDVLKVKDRNSKKYIEHFAALKSDKPQVVEKKDTASPVEKVYDAVVKGDRENIRKYIDDALKDGTEPSIIVDKYLIPAITHVGDLYDRKEYFLPQLIQSAETMKEAFGILEPLLKKEPVDEKGNKVKVILATVKGDIHDIGKNIVGLMLRNYGFEVYDLGKDVSAEEIVKKAKETNAPIIGLSALMTTTMLEMREVVSLVRQEGLNAKIMIGGAVVNADYAKEIGADGYSEDAYGAVKLASKLAGI | soluble
MNKLRRQLSMNSLLIDTSNQPLSVALMQNDEVLAEITTDSKQNHSVQLMPAISQLFEQSKIAKQQLDAIIVAEGPGSYTGLRIGVTVAKTLAYALDVKLYGVSSLKALAATIDHTDKLLVPVFDARRQAVYTGIFQWQNGQLVTILEDQYMSIEALRAFLEDLNQPFIYIGKDTIKLQDELQGEVIAQLPNASVMYQLIDKPTDVHTFTPKYHKLAEAERNWINSQKNN | not soluble
MNKNKPFIVVIVGPTASGKTELSIELAKRINGEIISGDSMQVYKHMNIGTAKVTPEEMDGIPHHLIDILNPDDTFSAYEFKRLAEDLITDITNRGKVPIIAGGTGLYIQSLIYNYELEDETVTPAQLSIVKQKLSALEHLDNQQLHDYLAQFDAVSAENIHPNNRQRVLRAIEYYLKTKKLLSNRKKVQQFTENYDTLLLGIEMSRKTLYSRINKRVDIMLDHGLFREVQQLVEQGYESCQSMQAIGYKELIPVINGQMIYEDAVNDLKQHSRQYAKRQMTWFKNKMSVHWLDKENMSLQMMLDEITTQIKLEHHHHHH | soluble
MNKRIVICADGTWNRPEKDLKVDFPTNVLRLARAISPIAADGKPQQVFYDWGVGSYYDEVIGGATGRGLHKNIMDGYRYIVQNYSPGDEIYLFGFSRGAYTVRCLCGLINNCGILKRPEARLIQQAFDHYKKSSAPFAPSGDKSVEFRHEHCHESREIKFVGVWDTVGAMGIPISFLGLFEDKDEFYDTKIGRNVRVARHALAIDEHRSDFEPTIWQLRDNMDMQQVWFAGAHSNVGGSYLPDKDGSLLSDNALAWMIAEAERFNLSLEPHLTAGLRPNPLATLHDSRRSFYRIKQPYLRPLDPDVAPVLLHRSVKVRWEQDPKYRPKNLQAYLEKFGWPQELIDKLAAALEHHHHHH | soluble
MNKTELIKNVAQNAEISQKEATVVVQTVVESITNTLAAGEKVQLIGFGTFEVRERAARTGRNPQTGEEMQIAASKVPAFKAGKELKEAVK | soluble
